In article PMC3023227 (2010):
Where no end group is shown, it is not given here. [ ]: non-standard residue; d: D form. pY = N[C@@H](Cc1ccc(OP(=O)(O)O)cc1)C(=O)O

These binders were tested against GAPDH (Oryctolagus cuniculus, UniProt P46406) (assay: fluorescence titration).
GAPDH, sequence (P46406 whole entry): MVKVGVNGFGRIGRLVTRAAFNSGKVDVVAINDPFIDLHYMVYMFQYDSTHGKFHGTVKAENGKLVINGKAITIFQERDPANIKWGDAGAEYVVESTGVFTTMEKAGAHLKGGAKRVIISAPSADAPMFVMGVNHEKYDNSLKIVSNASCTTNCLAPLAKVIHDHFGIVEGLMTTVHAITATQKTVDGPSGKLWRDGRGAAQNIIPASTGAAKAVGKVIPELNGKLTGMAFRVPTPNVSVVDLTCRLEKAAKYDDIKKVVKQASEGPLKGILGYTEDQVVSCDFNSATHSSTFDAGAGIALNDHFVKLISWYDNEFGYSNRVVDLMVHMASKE

Kd	Binder
3200 nM	CLDADDAKATFDEEEGRDEYDEVAMPV [AE1 C-terminal peptide AE1C-Y904]
2600 nM	CLDADDAKATFDEEEGRDE[pY]DEVAMPV [AE1 C-terminal peptide AE1C-pY904]
2300 nM	LIFRNVELQCLDADDAKATFDEEEGRDEYDEVAMPV [AE1 C-terminal domain (AE1C-WT) 876-911]
